Measurements: paper PMC9482650, “Quantitative fragmentomics allow affinity mapping of interactomes” (Nature Communications, 2022)

Tests used:
Experiment in all cases: holdup assay
Parameters in all cases: key: below the threshold = too weak to quantify, mostly under pKd 3.1 to 4
APBA2_2, Q99767 = biological target: T1, APBA2_2, Q99767
T1 sequence (Q99767 654-744, limits assumed, looked up): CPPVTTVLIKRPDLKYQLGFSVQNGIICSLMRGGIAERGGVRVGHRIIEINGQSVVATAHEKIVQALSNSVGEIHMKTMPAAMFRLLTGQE

ARHGAP21, Q5T5U3 = biological target: T2, ARHGAP21, Q5T5U3
T2 sequence (Q5T5U3 45-169, limits assumed, looked up): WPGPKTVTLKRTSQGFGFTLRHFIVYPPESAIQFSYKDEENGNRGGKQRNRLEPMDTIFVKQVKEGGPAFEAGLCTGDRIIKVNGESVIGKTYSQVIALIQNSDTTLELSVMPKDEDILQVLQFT

ARHGEF12, Q9NZN5-2 = biological target: ARHGEF12, Q9NZN5-2
DFNB31_3, Q9P202 = biological target: T3, DFNB31_3, Q9P202
T3 sequence (Q9P202 811-907, limits assumed, looked up): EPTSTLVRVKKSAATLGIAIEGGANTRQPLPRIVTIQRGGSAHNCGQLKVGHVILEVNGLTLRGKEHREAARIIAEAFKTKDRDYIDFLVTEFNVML

DLG1_1, Q12959 = biological target: DLG1_1, Q12959
DLG1_2, Q12959 = biological target: DLG1_2, Q12959
DLG2_2, Q15700 = biological target: DLG2_2, Q15700
DLG5_1, Q8TDM6 = biological target: DLG5_1, Q8TDM6
GIPC2, Q8TF65 = biological target: GIPC2, Q8TF65
GRASP, Q7Z6J2 = biological target: GRASP, Q7Z6J2
GRID2IP_1, A4D2P6 = biological target: GRID2IP_1, A4D2P6
Inadl_10, Q8NI35 = biological target: Inadl_10, Q8NI35
Inadl_2, Q8NI35 = biological target: Inadl_2, Q8NI35
Inadl_6, Q8NI35 = biological target: Inadl_6, Q8NI35
Inadl_8, Q8NI35 = biological target: Inadl_8, Q8NI35
LDB3, O75112 = biological target: LDB3, O75112
LIN7B, Q9HAP6 = biological target: T4, LIN7B, Q9HAP6
T4 sequence (Q9HAP6 88-185, limits assumed, looked up): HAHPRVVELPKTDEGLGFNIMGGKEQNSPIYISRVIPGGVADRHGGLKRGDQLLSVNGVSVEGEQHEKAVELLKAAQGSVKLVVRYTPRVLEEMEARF

MAGI2_2, Q86UL8 = biological target: MAGI2_2, Q86UL8
MPP2, Q14168 = biological target: T5, MPP2, Q14168
T5 sequence (Q14168 180-250, limits assumed, looked up): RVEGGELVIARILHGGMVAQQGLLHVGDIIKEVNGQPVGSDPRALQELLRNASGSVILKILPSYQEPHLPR

NHERF3_1, Q5T2W1 = biological target: T6, NHERF3_1, Q5T2W1
T6 sequence (Q5T2W1 4-100, limits assumed, looked up): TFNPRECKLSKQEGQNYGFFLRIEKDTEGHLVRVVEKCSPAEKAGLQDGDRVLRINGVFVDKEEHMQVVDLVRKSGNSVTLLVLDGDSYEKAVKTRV

NHERF3_3, Q5T2W1 = biological target: T7, NHERF3_3, Q5T2W1
T7 sequence (Q5T2W1 238-333, limits assumed, looked up): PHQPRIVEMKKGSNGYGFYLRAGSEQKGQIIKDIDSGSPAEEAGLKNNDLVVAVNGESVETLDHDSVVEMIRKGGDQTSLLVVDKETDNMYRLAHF

NHERF4_1, Q86UT5-2 = biological target: NHERF4_1, Q86UT5-2
PDLIM1, O00151 = biological target: PDLIM1, O00151
PDZRN4_1, Q6ZMN7 = biological target: PDZRN4_1, Q6ZMN7
RADIL, Q96JH8 = biological target: T8, RADIL, Q96JH8
T8 sequence (Q96JH8 971-1071, limits assumed, looked up): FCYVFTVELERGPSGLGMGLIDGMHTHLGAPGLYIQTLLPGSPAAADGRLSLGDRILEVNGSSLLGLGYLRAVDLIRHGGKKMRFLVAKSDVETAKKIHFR

RHPN1, Q8TCX5 = biological target: T9, RHPN1, Q8TCX5
T9 sequence (Q8TCX5 508-602, limits assumed, looked up): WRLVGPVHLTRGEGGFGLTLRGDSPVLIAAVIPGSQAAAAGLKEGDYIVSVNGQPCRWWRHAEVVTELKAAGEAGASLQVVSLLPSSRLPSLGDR

TIAM2, Q8IVF5 = biological target: T10, TIAM2, Q8IVF5
T10 sequence (Q8IVF5 885-986, limits assumed, looked up): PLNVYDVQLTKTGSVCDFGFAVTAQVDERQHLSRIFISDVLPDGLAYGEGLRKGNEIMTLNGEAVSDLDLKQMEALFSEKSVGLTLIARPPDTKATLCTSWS

[1] = plain residues with an end cap or a label only (N-terminal biotin on a linker: none)
[2] = plain residues with an end cap or a label only (N-terminal biotin on a linker: ttds)
[3] = plain residues with an end cap or a label only (N-terminal biotin on a linker: ahx)

Sequence of DLG5_1, Q8TDM6 (Q8TDM6 617-713): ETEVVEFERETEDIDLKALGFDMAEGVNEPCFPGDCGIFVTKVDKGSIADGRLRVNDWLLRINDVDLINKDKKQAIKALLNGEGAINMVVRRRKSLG
Sequence of GRASP, Q7Z6J2 (Q7Z6J2 96-193): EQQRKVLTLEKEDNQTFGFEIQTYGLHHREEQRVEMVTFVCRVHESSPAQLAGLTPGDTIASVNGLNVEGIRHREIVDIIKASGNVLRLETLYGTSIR
Sequence of GIPC2, Q8TF65 (Q8TF65 112-203): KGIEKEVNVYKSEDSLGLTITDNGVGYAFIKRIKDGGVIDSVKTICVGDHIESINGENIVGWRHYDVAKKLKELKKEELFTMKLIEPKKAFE
Sequence of PDZRN4_1, Q6ZMN7 (Q6ZMN7 213-318): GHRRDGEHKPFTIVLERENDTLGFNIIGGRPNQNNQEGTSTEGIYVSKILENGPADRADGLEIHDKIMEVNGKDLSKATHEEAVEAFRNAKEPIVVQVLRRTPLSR
Sequence of GRID2IP_1, A4D2P6 (A4D2P6 1-87): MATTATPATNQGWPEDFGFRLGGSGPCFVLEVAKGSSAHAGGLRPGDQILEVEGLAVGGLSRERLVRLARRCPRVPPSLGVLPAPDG
Sequence of PDLIM1, O00151 (O00151 1-87): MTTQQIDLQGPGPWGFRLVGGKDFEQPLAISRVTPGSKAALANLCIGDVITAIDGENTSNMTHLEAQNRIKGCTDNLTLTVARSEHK
Sequence of DLG2_2, Q15700 (Q15700 189-283): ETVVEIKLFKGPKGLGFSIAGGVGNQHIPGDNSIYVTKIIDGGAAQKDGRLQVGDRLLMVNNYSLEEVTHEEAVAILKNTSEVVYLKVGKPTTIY
Sequence of Inadl_10, Q8NI35 (Q8NI35 1673-1763): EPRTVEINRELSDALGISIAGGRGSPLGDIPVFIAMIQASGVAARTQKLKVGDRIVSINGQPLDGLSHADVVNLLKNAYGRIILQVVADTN
Sequence of Inadl_8, Q8NI35 (Q8NI35 1425-1530): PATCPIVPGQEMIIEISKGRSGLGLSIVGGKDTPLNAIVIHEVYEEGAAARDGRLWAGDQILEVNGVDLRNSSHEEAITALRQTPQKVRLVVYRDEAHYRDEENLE
Sequence of NHERF4_1, Q86UT5-2 (Q86UT5 other isoform, or with tags, fused parts or gaps): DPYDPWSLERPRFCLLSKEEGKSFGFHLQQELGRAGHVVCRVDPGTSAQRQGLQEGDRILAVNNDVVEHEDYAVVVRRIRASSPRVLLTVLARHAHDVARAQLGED
Sequence of ARHGEF12, Q9NZN5-2 (Q9NZN5 other isoform, or with tags, fused parts or gaps): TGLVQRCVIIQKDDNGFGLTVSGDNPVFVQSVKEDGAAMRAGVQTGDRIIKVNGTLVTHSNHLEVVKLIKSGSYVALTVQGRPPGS
Sequence of LDB3, O75112 (O75112 1-94): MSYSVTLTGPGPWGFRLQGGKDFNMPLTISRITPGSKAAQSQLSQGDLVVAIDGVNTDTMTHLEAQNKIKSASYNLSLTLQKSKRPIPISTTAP
Sequence of Inadl_2, Q8NI35 (Q8NI35 238-335): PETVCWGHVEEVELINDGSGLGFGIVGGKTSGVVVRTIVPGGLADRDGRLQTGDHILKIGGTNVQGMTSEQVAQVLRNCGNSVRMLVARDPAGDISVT
Sequence of Inadl_6, Q8NI35 (Q8NI35 1058-1167): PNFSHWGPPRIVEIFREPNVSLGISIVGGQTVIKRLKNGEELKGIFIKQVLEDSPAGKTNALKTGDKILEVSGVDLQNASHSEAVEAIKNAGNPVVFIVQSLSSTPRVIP
Sequence of MAGI2_2, Q86UL8 (Q86UL8 410-522): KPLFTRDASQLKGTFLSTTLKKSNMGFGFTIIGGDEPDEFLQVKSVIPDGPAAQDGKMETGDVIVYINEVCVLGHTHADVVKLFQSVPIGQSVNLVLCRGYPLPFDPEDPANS

B1: SARS-CoV2-E, P0DTC4 (peptide)
chain: NLNSSRVPDLLV
APBA2_2, Q99767; [1]
  pKd: below the threshold
ARHGAP21, Q5T5U3; [1]
  pKd: below the threshold
ARHGEF12, Q9NZN5-2; [1]
  pKd: below the threshold
DFNB31_3, Q9P202; [1]
  pKd: below the threshold
DLG1_1, Q12959; [1]
  pKd: below the threshold
DLG1_2, Q12959; [1]
  pKd: below the threshold
DLG2_2, Q15700; [1]
  pKd: below the threshold
DLG5_1, Q8TDM6; [1]
  pKd: below the threshold
GIPC2, Q8TF65; [1]
  pKd: below the threshold
GRASP, Q7Z6J2; [1]
  pKd: below the threshold
GRID2IP_1, A4D2P6; [1]
  pKd: below the threshold
Inadl_10, Q8NI35; [1]
  pKd: below the threshold
Inadl_2, Q8NI35; [1]
  pKd: 3.47
Inadl_6, Q8NI35; [1]
  pKd: below the threshold
Inadl_8, Q8NI35; [1]
  pKd: below the threshold
LDB3, O75112; [1]
  pKd: below the threshold
LIN7B, Q9HAP6; [1]
  pKd: below the threshold
MAGI2_2, Q86UL8; [1]
  pKd: below the threshold
MPP2, Q14168; [1]
  pKd: below the threshold
NHERF3_1, Q5T2W1; [1]
  pKd: below the threshold
NHERF3_3, Q5T2W1; [1]
  pKd: below the threshold
NHERF4_1, Q86UT5-2; [1]
  pKd: below the threshold
PDLIM1, O00151; [1]
  pKd: below the threshold
PDZRN4_1, Q6ZMN7; [1]
  pKd: below the threshold
RADIL, Q96JH8; [1]
  pKd: 3.76
RHPN1, Q8TCX5; [1]
  pKd: below the threshold
TIAM2, Q8IVF5; [1]
  pKd: below the threshold

B2: HPV73-E6, Q82005 (peptide)
chain: SGSRPSATVV
APBA2_2, Q99767; [2]
  pKd: below the threshold
ARHGAP21, Q5T5U3; [2]
  pKd: below the threshold
ARHGEF12, Q9NZN5-2; [2]
  pKd: below the threshold
DFNB31_3, Q9P202; [2]
  pKd: below the threshold
DLG1_1, Q12959; [2]
  pKd: 3.89
DLG1_2, Q12959; [2]
  pKd: 4.3
DLG2_2, Q15700; [2]
  pKd: 4.03
DLG5_1, Q8TDM6; [2]
  pKd: below the threshold
GIPC2, Q8TF65; [2]
  pKd: 3.62
GRASP, Q7Z6J2; [2]
  pKd: 3.8
GRID2IP_1, A4D2P6; [2]
  pKd: below the threshold
Inadl_10, Q8NI35; [2]
  pKd: below the threshold
Inadl_2, Q8NI35; [2]
  pKd: below the threshold
Inadl_6, Q8NI35; [2]
  pKd: below the threshold
Inadl_8, Q8NI35; [2]
  pKd: 3.53
LDB3, O75112; [2]
  pKd: below the threshold
LIN7B, Q9HAP6; [2]
  pKd: below the threshold
MAGI2_2, Q86UL8; [2]
  pKd: 4.19
MPP2, Q14168; [2]
  pKd: below the threshold
NHERF3_1, Q5T2W1; [2]
  pKd: below the threshold
NHERF3_3, Q5T2W1; [2]
  pKd: below the threshold
NHERF4_1, Q86UT5-2; [2]
  pKd: below the threshold
PDLIM1, O00151; [2]
  pKd: 3.48
PDZRN4_1, Q6ZMN7; [2]
  pKd: below the threshold
RADIL, Q96JH8; [2]
  pKd: 4.27
RHPN1, Q8TCX5; [2]
  pKd: below the threshold
TIAM2, Q8IVF5; [2]
  pKd: below the threshold

B3: LNX2, Q8N448 (peptide)
chain: TVICWPGSLV
APBA2_2, Q99767; [3]
  pKd: below the threshold
ARHGAP21, Q5T5U3; [3]
  pKd: below the threshold
ARHGEF12, Q9NZN5-2; [3]
  pKd: below the threshold
DFNB31_3, Q9P202; [3]
  pKd: below the threshold
DLG1_1, Q12959; [3]
  pKd: 4.21
DLG1_2, Q12959; [3]
  pKd: 4.27
DLG2_2, Q15700; [3]
  pKd: 3.9
DLG5_1, Q8TDM6; [3]
  pKd: below the threshold
GIPC2, Q8TF65; [3]
  pKd: below the threshold
GRASP, Q7Z6J2; [3]
  pKd: 4.59
GRID2IP_1, A4D2P6; [3]
  pKd: below the threshold
Inadl_10, Q8NI35; [3]
  pKd: 4.03
Inadl_2, Q8NI35; [3]
  pKd: below the threshold
Inadl_6, Q8NI35; [3]
  pKd: 3.55
Inadl_8, Q8NI35; [3]
  pKd: 4.57
LDB3, O75112; [3]
  pKd: below the threshold
LIN7B, Q9HAP6; [3]
  pKd: 4.46
MAGI2_2, Q86UL8; [3]
  pKd: 4.26
MPP2, Q14168; [3]
  pKd: 3.62
NHERF3_1, Q5T2W1; [3]
  pKd: 4.73
NHERF3_3, Q5T2W1; [3]
  pKd: below the threshold
NHERF4_1, Q86UT5-2; [3]
  pKd: 3.55
PDLIM1, O00151; [3]
  pKd: 4.31
PDZRN4_1, Q6ZMN7; [3]
  pKd: 4.23
RADIL, Q96JH8; [3]
  pKd: 4.91
RHPN1, Q8TCX5; [3]
  pKd: 3.85
TIAM2, Q8IVF5; [3]
  pKd: below the threshold

B4: OTULIN, Q96BN8 (peptide)
chain: PVRVCEETSL
APBA2_2, Q99767; [2]
  pKd: 3.51
ARHGAP21, Q5T5U3; [2]
  pKd: 4.2
ARHGEF12, Q9NZN5-2; [2]
  pKd: 4.8
DFNB31_3, Q9P202; [2]
  pKd: 3.49
DLG1_1, Q12959; [2]
  pKd: 4.35
DLG1_2, Q12959; [2]
  pKd: 4.56
DLG2_2, Q15700; [2]
  pKd: 3.87
DLG5_1, Q8TDM6; [2]
  pKd: 3.52
GIPC2, Q8TF65; [2]
  pKd: 4.02
GRASP, Q7Z6J2; [2]
  pKd: 4.71
GRID2IP_1, A4D2P6; [2]
  pKd: below the threshold
Inadl_10, Q8NI35; [2]
  pKd: 3.55
Inadl_2, Q8NI35; [2]
  pKd: below the threshold
Inadl_6, Q8NI35; [2]
  pKd: 4.4
Inadl_8, Q8NI35; [2]
  pKd: 3.61
LDB3, O75112; [2]
  pKd: below the threshold
LIN7B, Q9HAP6; [2]
  pKd: 3.85
MAGI2_2, Q86UL8; [2]
  pKd: 4.09
MPP2, Q14168; [2]
  pKd: below the threshold
NHERF3_1, Q5T2W1; [2]
  pKd: 5.92
NHERF3_3, Q5T2W1; [2]
  pKd: below the threshold
NHERF4_1, Q86UT5-2; [2]
  pKd: 4.02
PDLIM1, O00151; [2]
  pKd: below the threshold
PDZRN4_1, Q6ZMN7; [2]
  pKd: 5.23
RADIL, Q96JH8; [2]
  pKd: below the threshold
RHPN1, Q8TCX5; [2]
  pKd: 4.93
TIAM2, Q8IVF5; [2]
  pKd: below the threshold
